The record followed here is patent US20040172686A1.

The test addresses yeast APC (anaphase promoting complex of Schizosaccharomyces pombe). Nature of the test: cell-based or functional assay.

“HOBBIT (HBT) protein of Arabidopsis thaliana (from UniProt Q8LGU6 1-744)” displayed a growth (optical density) of S. pombe nuc2ts at restrictive temperature, HBT cDNA against empty vector control of 4 fold.
